The values below come from the Human Domainome abundance scans (Beltran et al. 2025).

± gives the uncertainty stated by the source.

B1: 3'-5' exoribonuclease 1, residues 65 to 114; numbered along this chain, Q8IV48 (parent)
chain: VYKEIAITNGCINRMSKEELRAKLSEFKLETRGVKDVLKKRLKNYYKKQK

Variants of B1 are the subject of this series. Put plainly: abundance fitness (aPCA) (normalised: wild type 0, dead -1); higher = more abundant; growth selection in yeast, the domain comes from the species named. As to conditions: Homo sapiens.
On to VYGEIAITNGCINRMSKEELRAKLSEFKLETRGVKDVLKKRLKNYYKKQK [K3G], for which the abundance fitness was -0.05 ± 0.041. To VYKEIAITNGCINRMSKEELRAKLSEFKLETRGVKDVLKKRLKNAYKKQK [Y45A] belongs -0.383 ± 0.038.

As for VYKEIAITNGCINRMSKEELRAKLSEFKLETRGVKDVLKKRLKNEYKKQK [Y45E], the abundance fitness is -0.63 ± 0.048. As for VYKEIAITNGCINRMSKEELRAKLSEFKLETRGVKDVLKKRSKNYYKKQK [L42S], the figure is -0.511 ± 0.041; as for VYKEIAITNGCINRMSKEELRAKLSEFKLETRGVKDVLKKRLKSYYKKQK [N44S], -0.087 ± 0.04. As for VYKEIAITNGCINRMSKEELRAKLSEFKLETRGVKDVLKKRLKEYYKKQK [N44E], the figure is -0.193 ± 0.053; as for VYKEIAITKGCINRMSKEELRAKLSEFKLETRGVKDVLKKRLKNYYKKQK [N9K], 0.066 ± 0.055; as for VYKEIAITNGCINRMSKEELRAKLSEFKLETRGVKDVLKKRLKNYLKKQK [Y46L], 0.079 ± 0.038.

As to VYKEIAITNGCINRMSKEELRAKLSEFKLETRGVKDVLKKRLKNYWKKQK [Y46W], the abundance fitness was -0.229 ± 0.049. To VYKEIAITNGCINRMSKEELRAKLSEFKLETRGVKDVLKKRLKNYIKKQK [Y46I] belongs 0.114 ± 0.053; to VYKEIAITNGCINDMSKEELRAKLSEFKLETRGVKDVLKKRLKNYYKKQK [R14D], -0.308 ± 0.052; to VYKEIAITNGCINMMSKEELRAKLSEFKLETRGVKDVLKKRLKNYYKKQK [R14M], -0.298 ± 0.05. As for VYKEIAITNGCINNMSKEELRAKLSEFKLETRGVKDVLKKRLKNYYKKQK [R14N], the figure is -0.151 ± 0.055; as for VYKEIAITNGCINSMSKEELRAKLSEFKLETRGVKDVLKKRLKNYYKKQK [R14S], -0.129 ± 0.036. As for VYKEIAITNGCINRMSKEELRAKLSEFKLETRGRKDVLKKRLKNYYKKQK [V34R], the figure is 0.11 ± 0.05; as for VYKEIAITNGCINRMSKEELRAKLSEFKLETRGPKDVLKKRLKNYYKKQK [V34P], -0.379 ± 0.055; as for VYKEIAITNGCINRMSKEELRAKLSEFKLETRGHKDVLKKRLKNYYKKQK [V34H], 0.054 ± 0.051.

In the case of VYKEIAITNGCINRMSKEELRAKLSEFKLETRGIKDVLKKRLKNYYKKQK [V34I], the abundance fitness was -0.064 ± 0.042. As for VYKEIAITNGCINRMSKEELRAKLSEFKLETRGCKDVLKKRLKNYYKKQK [V34C], the figure is -0.078 ± 0.059; as for VYKEIAITNGCINRMTKEELRAKLSEFKLETRGVKDVLKKRLKNYYKKQK [S16T], -0.01 ± 0.059; as for VYKEIAITNGCINRMSKEELRAKLSEFKLETRGVKDVLKKVLKNYYKKQK [R41V], -1.02 ± 0.052. Consider VYKEIAITNGCINRMSKEELRAKLSEFKLETRGVKDVLKKSLKNYYKKQK [R41S], for which the abundance fitness is -0.641 ± 0.044. For VYKEIAITNGCINRMSKEELRAKLSEFKLETRGVKDVLKKWLKNYYKKQK [R41W], the abundance fitness was -0.975 ± 0.06. As for VYKEIAITNGCINRMSKEELRAKLSEFKLWTRGVKDVLKKRLKNYYKKQK [E30W], the figure is -0.516 ± 0.054; as for VYKEIAITNGCINRMSKEELRAKLSEFKLKTRGVKDVLKKRLKNYYKKQK [E30K], -0.401 ± 0.069. To VYKEIAILNGCINRMSKEELRAKLSEFKLETRGVKDVLKKRLKNYYKKQK [T8L] belongs -0.388 ± 0.037; to VYKEIAICNGCINRMSKEELRAKLSEFKLETRGVKDVLKKRLKNYYKKQK [T8C], -0.29 ± 0.054. As for VYKEIAIGNGCINRMSKEELRAKLSEFKLETRGVKDVLKKRLKNYYKKQK [T8G], the figure is -0.215 ± 0.037; as for VYKEIAITNGCINRMSKEELRAKLSEFKLETRGVMDVLKKRLKNYYKKQK [K35M], -0.765 ± 0.064. VYKEIAITNGCINRMSKEELRAKLSEFKLETRGVNDVLKKRLKNYYKKQK [K35N]: the abundance fitness was -0.697 ± 0.05. To VYKEIAITNGCINRMSKEELRAKLSEFKLELRGVKDVLKKRLKNYYKKQK [T31L] belongs -0.639 ± 0.035; to VYKEIAITNGCINRMSKEELRAKLSEFKLEPRGVKDVLKKRLKNYYKKQK [T31P], -0.114 ± 0.035.

With VYKEIAITNGCINRMSKEELRKKLSEFKLETRGVKDVLKKRLKNYYKKQK [A22K], the abundance fitness is 0.057 ± 0.06. To VYKEIAITNGCINRMSKEELRFKLSEFKLETRGVKDVLKKRLKNYYKKQK [A22F] belongs -0.12 ± 0.049; to VYKEIAITNGCINRMSVEELRAKLSEFKLETRGVKDVLKKRLKNYYKKQK [K17V], -0.152 ± 0.061. To VYKEIAITNGCINRMSKEELRAKLSEFKLETRGVKDVQKKRLKNYYKKQK [L38Q] belongs -0.874 ± 0.076; to VYKEIAITNGCENRMSKEELRAKLSEFKLETRGVKDVLKKRLKNYYKKQK [I12E], -0.818 ± 0.073. As to VYKEIAITNGCLNRMSKEELRAKLSEFKLETRGVKDVLKKRLKNYYKKQK [I12L], the abundance fitness was -0.389 ± 0.034. To VYKEIAITNGCIRRMSKEELRAKLSEFKLETRGVKDVLKKRLKNYYKKQK [N13R] belongs -0.415 ± 0.035; to VYKEIAITNGCILRMSKEELRAKLSEFKLETRGVKDVLKKRLKNYYKKQK [N13L], -0.914 ± 0.043; to VYKEIAITNGCITRMSKEELRAKLSEFKLETRGVKDVLKKRLKNYYKKQK [N13T], -0.684 ± 0.051. For the variant VYKEIIITNGCINRMSKEELRAKLSEFKLETRGVKDVLKKRLKNYYKKQK [A6I], the abundance fitness was determined as 0.019 ± 0.082. As for VYKEIAITNGCINRMSKEELRAKLSEFKLETRGVKDVLKYRLKNYYKKQK [K40Y], the figure is -0.7 ± 0.059; as for VYKEIAITNGCINRMSKEELRAKLSEFKLETRGVKDVLKKRLKNYYKQQK [K48Q], -0.211 ± 0.059; as for VYKEIAITNGCINRMSKEELRAKLSEFKLETRGVKDVLKKRLKNYYKKQG [K50G], -0.299 ± 0.12. As for VYKEIAITNGCINRMSKEELRAKLSEFKLETRGVKDVLKKRLKNYYKKQP [K50P], the figure is -0.201 ± 0.32; as for VYKEIAITNGCINRMSKEELRAKLSEFKLETRGVKDVLKKRLKNYYKKQM [K50M], -0.216 ± 0.094; as for VYKEIAITNGEINRMSKEELRAKLSEFKLETRGVKDVLKKRLKNYYKKQK [C11E], 0.071 ± 0.046. To VYKEIAITNGCINRMSKEELRAVLSEFKLETRGVKDVLKKRLKNYYKKQK [K23V] belongs -0.182 ± 0.036; to VYKEIAITNGCINRMSKEALRAKLSEFKLETRGVKDVLKKRLKNYYKKQK [E19A], -0.147 ± 0.047. Regarding VYKEIAITNGCINRMSKEVLRAKLSEFKLETRGVKDVLKKRLKNYYKKQK [E19V], the abundance fitness is -0.379 ± 0.038.

For the variant VYKEIAITNGCINRMSKEQLRAKLSEFKLETRGVKDVLKKRLKNYYKKQK [E19Q], the abundance fitness turned out to be 0.007 ± 0.044.
